From patent US20230114491A1 (IMMUNEONCO BIOPHARMACEUTICALS SHANGHAI, published 2023) come the findings set out here.

Assay [1] concerns the target T1, CD24 (human, UniProt P25063 27-59).
T1 construct: whole, on cells; GPI-anchored cell surface protein; also called human CD24; hCD24
T1 chain (looked up): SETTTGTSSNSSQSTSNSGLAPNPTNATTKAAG
The experiment in a line: flow cytometry on CD24+CD47+ MCF-7 cells; positive control. Here is the method:
(§1) Cells were washed with cold PBS twice, and then incubated with 100 μl FITC-conjugated secondary antibody against human IgG-Fc (Cat #F9512, Sigma) for 45 min. Cells were washed twice and re-suspended in 200 μl PBS. Then, the cells were subject to FACS analysis using a flow cytometer (Merck Millipore, Guava® easyCyte 5HT).
A general note: Flow cytometry measures light scatter and fluorescence of single cells or particles in a stream.

In assay [2] the target is T2, CD47 (human, UniProt Q08722 19-323).
T2 construct: whole, on cells; also called CD47s on Jurkat cells; CD47s on MCF-7 human breast cancer cells
T2 sequence (Q08722 19-323): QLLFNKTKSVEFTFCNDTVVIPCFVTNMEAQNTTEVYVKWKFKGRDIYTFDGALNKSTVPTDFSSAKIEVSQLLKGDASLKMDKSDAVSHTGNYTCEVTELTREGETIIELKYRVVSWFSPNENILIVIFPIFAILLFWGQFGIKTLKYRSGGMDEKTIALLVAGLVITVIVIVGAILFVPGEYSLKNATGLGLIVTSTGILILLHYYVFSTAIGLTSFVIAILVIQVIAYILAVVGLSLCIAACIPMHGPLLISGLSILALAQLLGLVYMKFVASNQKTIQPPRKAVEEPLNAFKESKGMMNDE
The experiment in a line: flow cytometry on MCF-7 cells that carry both CD24 and CD47; the two targets are not resolved. As for the experimental part:
as §1

Assay [3] addresses T1, CD24. The assay is described as above. As for the experimental part:
as §1

Assay [4] deals with T2, CD47. Put plainly: flow cytometry on Jurkat cells (naturally expressing CD47), FITC anti-human IgG-Fc. Here is the method: as §1

B1: IMM47H (antibody, human IgG1, kappa, V domains shown)
VH: DVQLQESGPGLVKPSETLSLTCTVSGYSITSGYSWHWIRQPPGKGLEWIGYIHYSGSTKYNPSLKSRVTISVDTSKNQFSLKLSSVTAADTAVYYCARGADYALDYWGQRTSVTVSS
VL: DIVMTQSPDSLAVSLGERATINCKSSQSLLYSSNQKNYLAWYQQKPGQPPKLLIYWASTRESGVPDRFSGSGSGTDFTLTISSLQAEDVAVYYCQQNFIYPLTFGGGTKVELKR
notes: IgG antibody with humanized VH and humanized VL; also called anti-CD24 antibody IMM47H
Turning to B1, the binding result with CD24 [1] is “binds”.

B2: IMM4702H (bispecific antibody, human IgG1, kappa)
heavy: DVQLQESGPGLVKPSETLSLTCTVSGYSITSGYSWHWIRQPPGKGLEWIGYIHYSGSTKYNPSLKSRVTISVDTSKNQFSLKLSSVTAADTAVYYCARGADYALDYWGQRTSVTVSSASTKGPSVFPLAPSSKSTSGGTAALGCLVKDYFPEPVTVSWNSGALTSGVHTFPAVLQSSGLYSLSSVVTVPSSSLGTQTYICNVNHKPSNTKVDKRVEPKSCDKTHTCPPCPAPELLGGPSVFLFPPKPKDTLMISRTPEVTCVVVDVSHEDPEVKFNWYVDGVEVHNAKTKPREEQYNATYRVVSVLTVLHQDWLNGKEYKCKVSNKALPAPIAATISKAKGQPREPQVYTLPPSREEMTKNQVSLTCLVKGFYPSDIAVEWESNGQPENNYKTTPPVLDSDGSFFLYSKLTVDKSRWQQGNVFSCSVMHEALHNHYTQKSLSLSPGK
light: not shown
notes: Mutated SIRPαD1 linked via (G4S)3 to the N-terminus of each light chain of IMM47H (humanized VH and VL); also called recombinant fusion protein IMM4702H; IMM47H's heavy chain + SIRPαD1-linker-IMM47H's light chain
Regarding B2, the binding result with CD47 [2] and with CD24 [3] was “binds” throughout.

B3: IMM4702C (bispecific antibody, human IgG1, kappa)
heavy: DVQLQESGPDLVKPSQSLSLTCTVTGYSITSGYSWHWIRQFPGNKLEWMGYIHYSGSTKYNPSLKSRISITRDTSKNQFFLQLNSVTTEDTATYFCARGADYALDYWGQRTSVTVSSASTKGPSVFPLAPSSKSTSGGTAALGCLVKDYFPEPVTVSWNSGALTSGVHTFPAVLQSSGLYSLSSVVTVPSSSLGTQTYICNVNHKPSNTKVDKRVEPKSCDKTHTCPPCPAPELLGGPSVFLFPPKPKDTLMISRTPEVTCVVVDVSHEDPEVKFNWYVDGVEVHNAKTKPREEQYNATYRVVSVLTVLHQDWLNGKEYKCKVSNKALPAPIAATISKAKGQPREPQVYTLPPSREEMTKNQVSLTCLVKGFYPSDIAVEWESNGQPENNYKTTPPVLDSDGSFFLYSKLTVDKSRWQQGNVFSCSVMHEALHNHYTQKSLSLSPGK
light: not shown
notes: Mutated SIRPαD1 linked via (G4S)3 to the N-terminus of each light chain of IMM47C; also called recombinant fusion protein IMM4702C; IMM47C's heavy chain + SIRPαD1-linker-IMM47C's light chain
For B3, the binding result with CD47 [2] and with CD24 [3] was “binds” in each case.

B4: IMM4701 (bispecific antibody, human IgG1, kappa)
heavy: not shown
light: DIQMTQSPSSLSASVGDRVTITCKSSQSLLYSSNQKNYLAWYQQKPGKAPKLLIYWASTRESGVPSRFSGSGSGTDFTLTISSLQPEDFATYYCQQNFIYPLTFGGGTKVELKRTVAAPSVFIFPPSDEQLKSGTASVVCLLNNFYPREAKVQWKVDNALQSGNSQESVTEQDSKDSTYSLSSTLTLSKADYEKHKVYACEVTHQGLSSPVTKSFNRGEC
notes: Mutated SIRPαD1 linked via (G4S)3 to the N-terminus of each heavy chain of the anti-CD24 IgG IMM47 (mouse VH, humanized VL); also called recombinant fusion protein IMM4701; SIRPαD1-linker-IMM47's heavy chain + IMM47's light chain
Take B4: the binding result in the assay with CD24 [3] and with CD47 [4] was “binds” each time.
